The subject of one series is HCT116. Briefly: cells. It counts as cell-based, human. The settings on record: 96 h. Here is the method: Cells were plated in 96 well black walled-clear bottom plates (Griener), DLD-1 WT cells at 2500 cells per well, FaDu, and HeLa cells at 5000 cells per well, and HCT116 at 3000 cells per well, in growth media containing 10% FBS. Cells were allowed to adhere at room temperature for 60 minutes before returning to a 37 C, 5% CO2 incubator. After 24 hours, media was removed and replaced with fresh growth media containing various drug concentrations. Each drug concentration was added in triplicate. Non-drug treated controls contained growth media only. Cells were returned to the incubator. Ninety-six hours after addition of drug, cells were fixed with 4% paraformaldehyde for 20 minutes and stained with Hoechst at 1 ug/mL. The plates were imaged on a Cytation 5 auto imager (BioTek) and cells were counted using CellProfiler (http://cellprofiler.org). The percent cell growth delay was calculated and data plotted using GraphPad Prism

Series [1] is described as follows: Glutathione cleavage study. It counts as in vitro ADME. The note with it: for remaining at 4 h, 100 µM / remaining at 24 h, 100 µM: Tris buffer with 10 mM glutathione, Glutathione Challenge (10 mM), 100 μM conjugate, Tris pH 7.5, 37° C. Here is the method: A 20 mM stock of conjugate was prepared in 100% DMSO. The stocks were subsequently diluted in 100 mM Tris, pH 7.5, to yield an intermediate dilution of 500 μM followed by an additional dilution of 1:5 in 100 mM Tris, pH 7.5 to give a final concentration of 100 μM of conjugate. 100 mM glutathione was prepared immediately prior to use in H2O and diluted 1:10 in challenge samples for a final glutathione challenge concentration of 10 mM. Samples were mixed by inversion and incubated at 37° C. for up to 24 hrs. […]
Samples were thawed and extracted as follows: 8 μL of 25% phosphoric acid followed by 117 μL of 100% acetonitrile/0.1% TFA were added to each sample, mixed and centrifuged at 13000×G for 10 minutes. The supernatant was pipetted into 0.2 mL HPLC vials and placed on a Perkin Elmer Flexar HPLC autosampler. The following table summarizes HPLC conditions:
Data was analyzed by calculating the percentage reduction of compound (area of retention time peak of […] conjugate/area of retention time peak of conjugate at time 0)×100.

Another series in a line: Plasma stability studies. The series is classed as in vitro ADME. The note with it: rat plasma, 100 μM conjugate, 37° C. Here is the method:
A 20 mM stock of conjugate was prepared in 100% DMSO. The stocks were subsequently diluted in 100 mM Tris, pH 7.5 to yield an intermediate dilution of 500 μM and then diluted 1:5 directly into rat plasma to yield a final concentration of 100 μM of conjugate. Samples were mixed by inversion and incubated at 37° C. for up to 24 h. 50 μL samples were aliquoted into siliconized microfuge tubes at time 0, 4, and 24 h and immediately frozen at −80° C.
Samples were thawed and extracted as follows: 8 μL of 25% phosphoric acid followed by 117 μL of 100% Acetonitrile/0.1% TFA was added to each sample, mixed and centrifuged at 13000×G for 10 minutes. The supernatant was pipetted into 0.2 mL HPLC vials and placed on a Perkin Elmer Flexar HPLC autosampler. The following table summarizes HPLC conditions:
Data was analyzed by calculating the percentage reduction of compound (area of retention time peak of incubated conjugate/area of retention time peak of conjugate at time 0)×100.

In the series on HCT116, `CC[C@@]1(O)C(=O)OCc2c1cc1n(c2=O)Cc2c-1nc1cc(F)c(C)c3c1c2[C@@H](NC(=O)O[C@H]1CCc2ccccc2[C@@H]1SSC[C@H](NC(=O)[C@H](Cc1c[nH]c2ccccc12)NC(=O)[C@H](CC(C)C)NC(=O)[C@H](CC(C)C)NC(=O)[C@H](CC(=O)O)NC(=O)[C@H](CC(C)C)NC(=O)[C@H](CC(C)C)NC(=O)[C@H](CC(C)C)NC(=O)[C@@H](NC(=O)[C@H](CC(=O)O)NC(=O)[C@@H](NC(=O)[C@@H]1CCCN1C(=O)[C@H](Cc1ccccc1)NC(=O)[C@H](CC(C)C)NC(=O)[C@H](CC(C)C)NC(=O)[C@H](CC(=O)O)NC(=O)[C@H](CC(C)C)NC(=O)[C@H](Cc1ccc(O)cc1)NC(=O)[C@H](C)NC(=O)[C@H](CCCNC(=N)N)NC(=O)[C@H](Cc1c[nH]c2ccccc12)NC(=O)[C@@H]1CCCN1C(=O)[C@H](CC(N)=O)NC(=O)[C@H](CCC(N)=O)NC(=O)[C@H](CC(=O)O)NC(=O)[C@H](CC(=O)O)NC(=O)[C@H](C)N)[C@@H](C)O)[C@@H](C)O)C(=O)NCC(=O)O)CC3` [Compound 24] came in with a half-inhibitory concentration (IC50) of 3.4 nM. In series [1], the share remaining at 4 h, 100 µM stood at 20.8% and the fraction remaining at 24 h, 100 µM turned out to be 4.2%. For the same compound, in the series “Plasma stability studies”, the fraction remaining at 4 h, 100 µM amounted to 87% and the share remaining at 24 h, 100 µM turned out to be 87%.
Compound `CC[C@@]1(O)C(=O)OCc2c1cc1n(c2=O)Cc2c-1nc1cc(F)c(C)c3c1c2[C@@H](NC(=O)O[C@@H]1CCc2ccccc2[C@H]1SSC[C@H](NC(=O)[C@H](Cc1c[nH]c2ccccc12)NC(=O)[C@H](CC(C)C)NC(=O)[C@H](CC(C)C)NC(=O)[C@H](CC(=O)O)NC(=O)[C@H](CC(C)C)NC(=O)[C@H](CC(C)C)NC(=O)[C@H](CC(C)C)NC(=O)[C@@H](NC(=O)[C@H](CC(=O)O)NC(=O)[C@@H](NC(=O)[C@@H]1CCCN1C(=O)[C@H](Cc1ccccc1)NC(=O)[C@H](CC(C)C)NC(=O)[C@H](CC(C)C)NC(=O)[C@H](CC(=O)O)NC(=O)[C@H](CC(C)C)NC(=O)[C@H](Cc1ccc(O)cc1)NC(=O)[C@H](C)NC(=O)[C@H](CCCNC(=N)N)NC(=O)[C@H](Cc1c[nH]c2ccccc12)NC(=O)[C@@H]1CCCN1C(=O)[C@H](CC(N)=O)NC(=O)[C@H](CCC(N)=O)NC(=O)[C@H](CC(=O)O)NC(=O)[C@H](CC(=O)O)NC(=O)[C@H](C)N)[C@@H](C)O)[C@@H](C)O)C(=O)NCC(=O)O)CC3` [Compound 25] showed a 50% inhibitory concentration (IC50) with HCT116 of 2.9 nM. For the same compound, in series [1], the share remaining at 4 h, 100 µM came out at 42% and the fraction remaining at 24 h, 100 µM stood at 4.1%. In addition, in the series “Plasma stability studies”, the amount remaining at 4 h, 100 µM is 103% and the fraction remaining at 24 h, 100 µM is 104%.
`CC[C@@]1(O)C(=O)OCc2c1cc1n(c2=O)Cc2c-1nc1cc(F)c(C)c3c1c2[C@@H](NC(=O)O[C@H]1CC[C@H](SSC[C@H](NC(=O)[C@H](Cc2c[nH]c4ccccc24)NC(=O)[C@H](CC(C)C)NC(=O)[C@H](CC(C)C)NC(=O)[C@H](CC(=O)O)NC(=O)[C@H](CC(C)C)NC(=O)[C@H](CC(C)C)NC(=O)[C@H](CC(C)C)NC(=O)[C@@H](NC(=O)[C@H](CC(=O)O)NC(=O)[C@@H](NC(=O)[C@@H]2CCCN2C(=O)[C@H](Cc2ccccc2)NC(=O)[C@H](CC(C)C)NC(=O)[C@H](CC(C)C)NC(=O)[C@H](CC(=O)O)NC(=O)[C@H](CC(C)C)NC(=O)[C@H](Cc2ccc(O)cc2)NC(=O)[C@H](C)NC(=O)[C@H](CCCNC(=N)N)NC(=O)[C@H](Cc2c[nH]c4ccccc24)NC(=O)[C@@H]2CCCN2C(=O)[C@H](CC(N)=O)NC(=O)[C@H](CCC(N)=O)NC(=O)[C@H](CC(=O)O)NC(=O)[C@H](CC(=O)O)NC(=O)[C@H](C)N)[C@@H](C)O)[C@@H](C)O)C(=O)NCC(=O)O)CC1)CC3` [Compound 26] displayed an IC50 with HCT116 of 87 nM. Also, in series [1], the share remaining at 4 h, 100 µM turned out to be 75.8% and the amount remaining at 24 h, 100 µM was 32.1%. Moreover, in the series “Plasma stability studies”, the amount remaining at 4 h, 100 µM amounted to 105% and the fraction remaining at 24 h, 100 µM worked out at 112%.
For `CC[C@@]1(O)C(=O)OCc2c1cc1n(c2=O)Cc2c-1nc1cc(F)c(C)c3c1c2[C@@H](NC(=O)OC[C@@H](SSC[C@H](NC(=O)[C@H](Cc1c[nH]c2ccccc12)NC(=O)[C@H](CC(C)C)NC(=O)[C@H](CC(C)C)NC(=O)[C@H](CC(=O)O)NC(=O)[C@H](CC(C)C)NC(=O)[C@H](CC(C)C)NC(=O)[C@H](CC(C)C)NC(=O)[C@@H](NC(=O)[C@H](CC(=O)O)NC(=O)[C@@H](NC(=O)[C@@H]1CCCN1C(=O)[C@H](Cc1ccccc1)NC(=O)[C@H](CC(C)C)NC(=O)[C@H](CC(C)C)NC(=O)[C@H](CC(=O)O)NC(=O)[C@H](CC(C)C)NC(=O)[C@H](Cc1ccc(O)cc1)NC(=O)[C@H](C)NC(=O)[C@H](CCCNC(=N)N)NC(=O)[C@H](Cc1c[nH]c2ccccc12)NC(=O)[C@@H]1CCCN1C(=O)[C@H](CC(N)=O)NC(=O)[C@H](CCC(N)=O)NC(=O)[C@H](CC(=O)O)NC(=O)[C@H](CC(=O)O)NC(=O)[C@H](C)N)[C@@H](C)O)[C@@H](C)O)C(=O)NCC(=O)O)C(C)C)CC3` [Compound 27], in that order: 0.7 nM, 18%, 0%, 117% and 109%.
As to `CC[C@@]1(O)C(=O)OCc2c1cc1n(c2=O)Cc2c-1nc1cc(F)c(C)c3c1c2[C@@H](NC(=O)OC[C@H](SSC[C@H](NC(=O)[C@H](Cc1c[nH]c2ccccc12)NC(=O)[C@H](CC(C)C)NC(=O)[C@H](CC(C)C)NC(=O)[C@H](CC(=O)O)NC(=O)[C@H](CC(C)C)NC(=O)[C@H](CC(C)C)NC(=O)[C@H](CC(C)C)NC(=O)[C@@H](NC(=O)[C@H](CC(=O)O)NC(=O)[C@@H](NC(=O)[C@@H]1CCCN1C(=O)[C@H](Cc1ccccc1)NC(=O)[C@H](CC(C)C)NC(=O)[C@H](CC(C)C)NC(=O)[C@H](CC(=O)O)NC(=O)[C@H](CC(C)C)NC(=O)[C@H](Cc1ccc(O)cc1)NC(=O)[C@H](C)NC(=O)[C@H](CCCNC(=N)N)NC(=O)[C@H](Cc1c[nH]c2ccccc12)NC(=O)[C@@H]1CCCN1C(=O)[C@H](CC(N)=O)NC(=O)[C@H](CCC(N)=O)NC(=O)[C@H](CC(=O)O)NC(=O)[C@H](CC(=O)O)NC(=O)[C@H](C)N)[C@@H](C)O)[C@@H](C)O)C(=O)NCC(=O)O)C(C)C)CC3` [Compound 28], half-maximal inhibition in the series with HCT116 (IC50) required 1.1 nM. In series [1], the amount remaining at 4 h, 100 µM worked out at 40.5% and the share remaining at 24 h, 100 µM was found to be 0%. In addition, in “Plasma stability studies”, the share remaining at 4 h, 100 µM was determined as 106% and the share remaining at 24 h, 100 µM came out at 106%.
Consider `CC[C@@]1(O)C(=O)OCc2c1cc1n(c2=O)Cc2c-1nc1cc(F)c(C)c3c1c2[C@@H](NC(=O)CCSSC[C@H](NC(=O)[C@H](Cc1c[nH]c2ccccc12)NC(=O)[C@H](CC(C)C)NC(=O)[C@H](CC(C)C)NC(=O)[C@H](CC(=O)O)NC(=O)[C@H](CC(C)C)NC(=O)[C@H](CC(C)C)NC(=O)[C@H](CC(C)C)NC(=O)[C@@H](NC(=O)[C@H](CC(=O)O)NC(=O)[C@@H](NC(=O)[C@@H]1CCCN1C(=O)[C@H](Cc1ccccc1)NC(=O)[C@H](CC(C)C)NC(=O)[C@H](CC(C)C)NC(=O)[C@H](CC(=O)O)NC(=O)[C@H](CC(C)C)NC(=O)[C@H](Cc1ccc(O)cc1)NC(=O)[C@H](C)NC(=O)[C@H](CCCNC(=N)N)NC(=O)[C@H](Cc1c[nH]c2ccccc12)NC(=O)[C@@H]1CCCN1C(=O)[C@H](CC(N)=O)NC(=O)[C@H](CCC(N)=O)NC(=O)[C@H](CC(=O)O)NC(=O)[C@H](CC(=O)O)NC(=O)[C@H](C)N)[C@@H](C)O)[C@@H](C)O)C(=O)NCC(=O)O)CC3` [Compound 29], for which the half-inhibitory concentration (IC50) in the series with HCT116 amounted to 69 nM. Moreover, the “degradation on glutathione exposure (FIG. 10)” value in series [1] (10 mM glutathione over 16 h) is on record as “released much faster than Compound 11”. Moreover, in series [1], the fraction remaining at 4 h, 100 µM is 3.1% and the amount remaining at 24 h, 100 µM was 5.9%. Further, in the series “Plasma stability studies”, the share remaining at 4 h, 100 µM was 116% and the fraction remaining at 24 h, 100 µM was 110%.

Values taken from patent US12410262B2, “Peptide conjugates of cytotoxins as therapeutics” (Cybrexa 2, Inc., priority 2019, dated 2025).
